One assay deals with HUVE cells. In words: Cell spreading assay. It counts as cell-based, human. To be noted: dishes coated with 10 μg/ml, 2 hours. As to the method: In another embodiment of the invention, the effect of murine Cyr61 on cell morphogenesis was assessed by a cell spreading assay. Polystyrene Petri dishes were coated with 2 ml of a 10 μg/ml solution of Cyr61 or fibronectin in PBS with 0.1% BSA and treated as described above. A third plate was treated with BSA and served as a control. Each dish received 7×10^6 cells and was incubated for 2 hours. Cell spreading was analyzed by microscopy at 100-fold magnification.

The subject of assay [1] is 1064SK primary human foreskin fibroblasts. In words: Fibroblast adhesion assay (methylene blue, A620). It counts as cell-based. As to the method:
The ability of Cyr61 to mediate cell adhesion in normal fibroblasts was investigated. Microtiter wells were coated with purified recombinant Cyr61 protein, and 1064SK primary human foreskin fibroblasts were allowed to adhere under serum-free conditions. […] 50 μl cell suspensions were plated on microtiter wells coated with varying concentrations (0.5-5.0 μg/ml) of Cyr61 protein. After incubation at 37° C. for 30 minutes, adherent cells were fixed and stained with methylene blue.
In another experiment, microtiter wells were coated with either BSA, Cyr61 (2 μg/ml), or vitronectin (VN; 0.5 μg/ml) and blocked with affinity-purified anti-Cyr61 antibodies for one hour at 37° C. before 1064SK cells were plated.
The effects of divalent cations in cell adhesion to Cyr61 was also investigated. […] Data are means from triplicate determinations. […] Inhibition by Ca^2+ is characteristic of adhesion through some members of the β1 family of integrins, including receptors that bind type I collagen, laminin, and vitronectin (integrins α2β1, α6β1, and αVβ1) in fibroblasts, as well as the lymphocyte-specific integrin αLβ2.
The effects of RGD peptides on Cyr61-mediated fibroblast binding was tested by plating cells in wells coated with Cyr61 (2 μg/ml). Type I collagen (2 μg/ml) or vitronectin (0.5 μg/ml), 2 mM GRGDSP or GRGESP peptide was then added.
Cells were also pre-incubated with 40 μg/ml monoclonal antibodies against the integrin α5 or the integrin αV subunits at room temperature for 30 minutes, then plated on wells coated with Cyr61 (2 μg/ml), vitronectin (0.5 μg/ml) or fibronectin (FN, 1 μg/ml). […] The data are means, representative of three experiments.
The 1064 SK cells were also analyzed using the monoclonal antibody JBIA, which binds the β1 integrin subunit. Cells were pre-incubated with the antibody (50 μg/ml) before plating on microtiter wells coated with Cyr61 (2 μg/ml), Type I collagen (2 μg/ml), or vitronectin (0.5 μg/ml). […] Data are means, representative of three experiments.
To identify the specific β1 integrin that mediates fibroblast adhesion to Cyr61, the inhibitory effects of function-blocking monoclonal antibodies were tested against various integrin α subunits. […] The data are means, representative of at least three experiments.

Assay [2] relates to Bovine aortic smooth muscle cells (BASM cells). Put plainly: Smooth muscle cell adhesion assay. It counts as cell-based. The method, then: Cell adhesion assays were also performed on smooth muscle cells. Bovine aortic smooth muscle cells (BASM cells) were subjected to the cell adhesion assay described above in the context of assaying fibroblasts. […] To identify particular integrin, receptors mediating the Cyr61 induction of BASM cell adhesion, antibody studies were conducted using anti-integrin antibodies recognizing specific integrins. […] Thus, integrin α6β1 mediates Cyr61-induced adhesion of smooth muscle cells. It is expected that Cyr61 polypeptides that include the heparan binding domain IV will induce adhesion of any mammalian smooth muscle cell.

Assay [3] has as its system Human Microvascular Endothelial Cells. In words: In vitro migration assay for angiogenesis inhibitors. In kind it is cell-based. To be noted: bFGF 10 ng/ml; Cyr61; IGF-II. As to the method: As in the preceding Example, human microvascular endothelial cells (Clonetics) were used. In one series of assays, several carbohydrates and carbohydrate derivatives were analyzed. These compounds included 10 mM mannose, 10 mM mannose-6-phosphate, and 10 mM galactose. […] Cyr61 plus galactose induced the migration of approximately 74 cells per set of three high-powered fields. […] The angiogenic activity of basic FGF (10 ng/ml) was also tested, as described above, with and without mannose-6-phosphate. In the presence of 10 mM mannose-6-phosphate, bFGF induced 51 cells per set of three high-powered fields to migrate; in its absence, bFGF induced the migration of approximately 52 cells. […] The effect of mannose-6-phosphate on IGF II activity was anticipated because mannose-6-phosphate is known to compete with IGF II for their common receptor (the IGF II receptor). […] Moreover, because there is an essentially perfect correlation between the in vitro migration assay and the in vivo angiogenesis assay, described below, mannose-6-phosphate has been identified as an inhibitor of angiogenesis based on the results of the assay disclosed herein. Accordingly, the invention contemplates a method of inhibiting angiogenesis comprising the step of administering an inhibitor the angiogenic activity of Cyr61 such as mannose-6-phosphate. […]

We go through one molecule from US7521540B2, “CYR61 compositions and methods” (Munin Corporation, priority 1996, dated 2009).

B1: Cyr61: Cysteine-rich ECM signaling protein; murine sequence SEQ ID NO:2, recombinant from Baculovirus-infected Sf9 cells (protein, listed as Mus musculus)
chain: MSSSTFRTLAVAVTLLHLTRLALSTCPAACHCPLEAPKCAPGVGLVRDGCGCCKVCAKQLNEDCSKTQPCDHTKGLECNFGASSTALKGICRAQSEGRPCEYNSRIYQNGESFQPNCKHQCTCIDGAVGCIPLCPQELSLPNLGCPNPRLVKVSGQCCEEWVCDEDSIKDSLDDQDDLLGLDASEVELTRNNELIAIGKGSSLKRLPVFGTEPRVLFNPLHAHGQKCIVQTTSWSQCSKSCGTGISTRVTNDNPECRLVKETRICEVRPCGQPVYSSLKKGKKCSKTKKSPEPVRFTYAGCSSVKKYRPKYCGSCVDGRCCTPLQTRTVKMRFRCEDGEMFSKNVMMIQSCKCNYNCPHPNEASFRLYSLFNDIHKFRD
On to B1, for which the “HUVE cell spreading” value with HUVE cells was “induces HUVE cell spreading to approximately the same extent as fibronectin”. In addition, the “coating concentration at which maximal adhesion was reached” value in assay [1] was determined as 1 µg/mL. Moreover, the “inhibition by anti-α6 antibody of binding mediated by the coated protein” value in assay [1] (anti-α6 20 μg/ml) is listed as 78%. For the same molecule, the entries for the “1064SK adhesion, absorbance” value in assay [1] (coating 0.5 μg/ml) and in assay [1] (coating 1-5 μg/ml) were “about 0.3 A620” and 0.45-0.55 A620, respectively. Besides, the “support of 1064SK fibroblast adhesion” value in assay [1] (protein coated on wells) is “dose-dependent and saturable”. For the same molecule, the “adhesion of BASM cells” value in assay [2] is “induced adhesion of BASM cells”. Besides, the “migrating cells, chemoattractant without mannose-6-phosphate” value in assay [3] is “approximately 48 cells”.
